Laboratory results reported in PMC9320966 (Arthritis & Rheumatology (Hoboken, N.j.), 2022).

Biological target: COMP in mouse joint cartilage (Mus musculus, UniProt Q9R0G6)
Assay: immunostaining of cells or tissue

Chain of COMP in mouse joint cartilage (Q9R0G6 20-755): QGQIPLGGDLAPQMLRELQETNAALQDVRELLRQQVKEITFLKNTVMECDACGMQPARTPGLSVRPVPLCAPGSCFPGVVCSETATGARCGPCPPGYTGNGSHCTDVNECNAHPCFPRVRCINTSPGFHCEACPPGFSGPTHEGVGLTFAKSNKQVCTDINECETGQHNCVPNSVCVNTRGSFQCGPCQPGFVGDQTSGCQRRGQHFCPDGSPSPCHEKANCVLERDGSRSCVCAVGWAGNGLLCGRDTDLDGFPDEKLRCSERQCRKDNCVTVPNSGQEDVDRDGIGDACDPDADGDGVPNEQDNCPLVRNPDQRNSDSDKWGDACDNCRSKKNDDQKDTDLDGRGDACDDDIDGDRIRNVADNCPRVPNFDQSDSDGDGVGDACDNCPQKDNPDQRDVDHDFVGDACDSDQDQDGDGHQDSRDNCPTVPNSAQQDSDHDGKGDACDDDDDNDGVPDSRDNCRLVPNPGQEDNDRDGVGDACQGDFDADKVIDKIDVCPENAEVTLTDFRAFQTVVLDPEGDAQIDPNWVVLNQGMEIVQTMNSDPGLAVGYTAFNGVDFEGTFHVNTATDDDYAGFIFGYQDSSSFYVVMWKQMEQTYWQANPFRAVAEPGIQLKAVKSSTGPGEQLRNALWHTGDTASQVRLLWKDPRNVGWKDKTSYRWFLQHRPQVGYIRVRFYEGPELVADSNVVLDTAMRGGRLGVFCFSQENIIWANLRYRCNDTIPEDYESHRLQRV

B1: murine monoclonal anti-COMP antibody 15A11 (antibody, V domains shown)
VH: QVQLQQSGAELAKPGASVNLSCKASGYTFTNYWVHWVKQRPGQGLEWIGYINPSNTYISYNQQFKDKATLTADKSSSTAYMQLSRLTYEDSSVYYCARGGFFYDYDVWYFDVWGTGTTVTVSS
VL: DVLMTQIPLSLPVSLGDQASISCRSSQNIVHSNGNTYLEWYLQKPGQSPKLLIYKVSNRFSGVPDRFSGSGSGTDFTLKISRVEAEDLGVYYCFQGSHVPFTFGSGTKLEIK
binding result: binds
